T1: recombinant human C5a (human, UniProt P01031 678-751)
T1 construct: Bought rhC5a (Hycult HC2101 for the ELISA, Sigma C5788 for the CD11b assay); also called rhC5a; hC5a
T1 sequence: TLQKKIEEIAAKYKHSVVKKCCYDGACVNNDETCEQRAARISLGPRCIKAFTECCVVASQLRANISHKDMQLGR


Legend:
recombinant human C5a [1] = biological target: T1, recombinant human C5a; assay: ELISA on C5a (ABZENA), 0-100 ng/mL antibody
recombinant human C5a [2] = biological target: T1, recombinant human C5a; assay: cell-based or functional assay

Row | Binder | Relative EC50 (recombinant human C5a [1]) | relative blocking activity on rhC5a-induced CD11b upregulation on granulocytes in human whole blood (flow cytometry MFI), 16.7 nM rhC5a, Ag:Ab 1:1, IFX-1 set to 100% [lower graph] (recombinant human C5a [2]) [%] | relative blocking activity on rhC5a-induced CD11b upregulation on granulocytes in human whole blood (flow cytometry MFI), 16.7 nM rhC5a, Ag:Ab 1:1, IFX-1 set to 100% [upper graph] (recombinant human C5a [2]) [%]
1 | IFX-1 (VH0/Vκ0), chimeric anti-human C5a IgG4 antibody (antibody, V domains shown, also called VH0Vk0; VH0Vk0 (IFX-1); not shown: human kappa light chain constant domain) VH: QVQLQQSGPQLVRPGTSVKISCKASGYSFTTFWMDWVKQRPGQGLEWIGRIDPSDSESRLDQRFKDRATLTVDKSSSTVYMQLSSPTSEDSAVYYCARGNDGYYGFAYWGQGTLVTVSS VL: DIVLTQSPASLAVSLGQRATISCKASQSVDYDGDSYMKWYQQKPGQPPKLLIYAASNLQSGIPARFSGSGSGTDFTLNIHPVEEEDAATYYCQQSNEDPYTFGGGTKLEIK | 1 relative to IFX-1 (VH0Vk0) |  | 
2 | VH4Vk3 (IFX-2 clone) (antibody, IgG4, Humanized IgG4 (S241P) / kappa; also called VH4/Vκ3; not shown: human kappa light chain constant domain) heavy: not shown light: DIQLTQSPSSLSASVGDRVTITCKASQSVDYDGDSYMKWYQQKPGKAPKLLIYAASNLQSGIPSRFSGSGSGTDFTLTISSLQPEDFATYYCQQSNEDPYTFGQGTKLEIK | 0.91 relative to IFX-1 (VH0Vk0) | 102 | 
3 | VH2Vk3 (IFX-2 clone) (antibody, IgG4, V domains shown, Humanized IgG4 (S241P) / kappa; also called VH2/Vκ3; not shown: human kappa light chain constant domain) VH: QVQLVQSGAEVKKPGASVKISCKASGYSFTTFWMDWVKQAPGQGLEWIGRIDPSDSESRLDQRFKDRATLTVDKSTSTVYMELSSLRSEDTAVYYCARGNDGYYGFAYWGQGTLVTVSS VL: DIQLTQSPSSLSASVGDRVTITCKASQSVDYDGDSYMKWYQQKPGKAPKLLIYAASNLQSGIPSRFSGSGSGTDFTLTISSLQPEDFATYYCQQSNEDPYTFGQGTKLEIK | 1.09 relative to IFX-1 (VH0Vk0) |  | 
4 | VH4Vk2 (IFX-2 clone) (antibody, IgG4, Humanized IgG4 (S241P) / kappa; also called VH4/Vκ2; not shown: human kappa light chain constant domain) heavy: not shown light: DIVLTQSPASLSASVGDRVTITCKASQSVDYDGDSYMKWYQQKPGKAPKLLIYAASNLQSGIPSRFSGSGSGTDFTLTISSLQPEDFATYYCQQSNEDPYTFGQGTKLEIK | 0.86 relative to IFX-1 (VH0Vk0) | 104 | 
5 | VH4Vk4 (IFX-2 clone) (antibody, IgG4, V domains shown, Humanized IgG4 (S241P) / kappa; also called VH4/Vκ4; not shown: human kappa light chain constant domain) VH: QVQLVQSGAEVKKPGASVKVSCKASGYSFTTFWMDWVRQAPGQGLEWIGRIDPSDSESRLDQRFKDRVTMTVDKSTSTVYMELSSLRSEDTAVYYCARGNDGYYGFAYWGQGTLVTVSS VL: DIQMTQSPSSLSASVGDRVTITCKASQSVDYDGDSYMKWYQQKPGKAPKLLIYAASNLQSGVPSRFSGSGSGTDFTLTISSLQPEDFATYYCQQSNEDPYTFGQGTKLEIK | 1.03 relative to IFX-1 (VH0Vk0) |  | 102
6 | VH5Vk2 (IFX-2 clone) (antibody, IgG4, Humanized IgG4 (S241P) / kappa; also called VH5/Vκ2; not shown: human kappa light chain constant domain) heavy: not shown light: DIVLTQSPASLSASVGDRVTITCKASQSVDYDGDSYMKWYQQKPGKAPKLLIYAASNLQSGIPSRFSGSGSGTDFTLTISSLQPEDFATYYCQQSNEDPYTFGQGTKLEIK | 1.05 relative to IFX-1 (VH0Vk0) | 103 | 
7 | VH4Vk1 (IFX-2 clone) (antibody, IgG4, V domains shown, Humanized IgG4 (S241P) / kappa; also called VH4/Vκ1; not shown: human kappa light chain constant domain) VH: QVQLVQSGAEVKKPGASVKVSCKASGYSFTTFWMDWVRQAPGQGLEWIGRIDPSDSESRLDQRFKDRVTMTVDKSTSTVYMELSSLRSEDTAVYYCARGNDGYYGFAYWGQGTLVTVSS VL: DIVLTQSPASLAASVGDRVTITCKASQSVDYDGDSYMKWYQQKPGKAPKLLIYAASNLQSGIPSRFSGSGSGTDFTLTISSLQEEDFATYYCQQSNEDPYTFGQGTKLEIK | 1 relative to IFX-1 (VH0Vk0) |  | 98
8 | VH5Vk4 (IFX-2 clone) (antibody, IgG4, V domains shown, Humanized IgG4 (S241P) / kappa; also called VH5/Vκ4; not shown: human kappa light chain constant domain) VH: QVQLVQSGAEVKKPGASVKVSCKASGYSFTTFWMDWVRQAPGQGLEWMGRIDPSDSESRLDQKFKDRVTMTVDKSTSTVYMELSSLRSEDTAVYYCARGNDGYYGFAYWGQGTLVTVSS VL: DIQMTQSPSSLSASVGDRVTITCKASQSVDYDGDSYMKWYQQKPGKAPKLLIYAASNLQSGVPSRFSGSGSGTDFTLTISSLQPEDFATYYCQQSNEDPYTFGQGTKLEIK | 1.53 relative to IFX-1 (VH0Vk0) |  | 94
9 | VH3Vk4 (IFX-2 clone) (antibody, IgG4, V domains shown, Humanized IgG4 (S241P) / kappa; also called VH3/Vκ4; not shown: human kappa light chain constant domain) VH: QVQLVQSGAEVKKPGASVKVSCKASGYSFTTFWMDWVRQAPGQGLEWIGRIDPSDSESRLDQRFKDRATLTVDKSTSTVYMELSSLRSEDTAVYYCARGNDGYYGFAYWGQGTLVTVSS VL: DIQMTQSPSSLSASVGDRVTITCKASQSVDYDGDSYMKWYQQKPGKAPKLLIYAASNLQSGVPSRFSGSGSGTDFTLTISSLQPEDFATYYCQQSNEDPYTFGQGTKLEIK | 0.86 relative to IFX-1 (VH0Vk0) | 103 | 
10 | VH5Vk1 (IFX-2 clone) (antibody, IgG4, V domains shown, Humanized IgG4 (S241P) / kappa; also called VH5/Vκ1; not shown: human kappa light chain constant domain) VH: QVQLVQSGAEVKKPGASVKVSCKASGYSFTTFWMDWVRQAPGQGLEWMGRIDPSDSESRLDQKFKDRVTMTVDKSTSTVYMELSSLRSEDTAVYYCARGNDGYYGFAYWGQGTLVTVSS VL: DIVLTQSPASLAASVGDRVTITCKASQSVDYDGDSYMKWYQQKPGKAPKLLIYAASNLQSGIPSRFSGSGSGTDFTLTISSLQEEDFATYYCQQSNEDPYTFGQGTKLEIK | 1.28 relative to IFX-1 (VH0Vk0) | 101 | 
11 | VH3Vk2 (IFX-2 clone) (antibody, IgG4, V domains shown, Humanized IgG4 (S241P) / kappa; also called VH3/Vκ2; not shown: human kappa light chain constant domain) VH: QVQLVQSGAEVKKPGASVKVSCKASGYSFTTFWMDWVRQAPGQGLEWIGRIDPSDSESRLDQRFKDRATLTVDKSTSTVYMELSSLRSEDTAVYYCARGNDGYYGFAYWGQGTLVTVSS VL: DIVLTQSPASLSASVGDRVTITCKASQSVDYDGDSYMKWYQQKPGKAPKLLIYAASNLQSGIPSRFSGSGSGTDFTLTISSLQPEDFATYYCQQSNEDPYTFGQGTKLEIK | 1.05 relative to IFX-1 (VH0Vk0) |  | 96
12 | VH5Vk3 (IFX-2 clone) (antibody, IgG4, Humanized IgG4 (S241P) / kappa; also called VH5/Vκ3; not shown: human kappa light chain constant domain) heavy: not shown light: DIQLTQSPSSLSASVGDRVTITCKASQSVDYDGDSYMKWYQQKPGKAPKLLIYAASNLQSGIPSRFSGSGSGTDFTLTISSLQPEDFATYYCQQSNEDPYTFGQGTKLEIK | 1.14 relative to IFX-1 (VH0Vk0) |  | 96
13 | VH2Vk4 (IFX-2 clone) (antibody, IgG4, V domains shown, Humanized IgG4 (S241P) / kappa; also called VH2/Vκ4; not shown: human kappa light chain constant domain) VH: QVQLVQSGAEVKKPGASVKISCKASGYSFTTFWMDWVKQAPGQGLEWIGRIDPSDSESRLDQRFKDRATLTVDKSTSTVYMELSSLRSEDTAVYYCARGNDGYYGFAYWGQGTLVTVSS VL: DIQMTQSPSSLSASVGDRVTITCKASQSVDYDGDSYMKWYQQKPGKAPKLLIYAASNLQSGVPSRFSGSGSGTDFTLTISSLQPEDFATYYCQQSNEDPYTFGQGTKLEIK | 0.99 relative to IFX-1 (VH0Vk0) |  | 

From US20230279087A1 (INFLARX, published 2023)
